Laboratory results from patent US20120172293A1 (Takeda / Millennium, published 2012).
Non-standard residues stand in square brackets, D forms with d. No end group written: not given here. *: point of attachment. X11 = ((1S)-1-carboxy-3-methylbutyl)carbamoyl, CC(C)C[C@H](NC(=O)*)C(=O)O; Phe(4-Me) = Cc1ccc(C[C@H](N)C(=O)O)cc1; 1Nal = N[C@@H](Cc1cccc2ccccc12)C(=O)O; 2Nal = N[C@@H](Cc1ccc2ccccc2c1)C(=O)O; NMeF = CN[C@@H](Cc1ccccc1)C(=O)O; Tic = O=C(O)[C@@H]1Cc2ccccc2CN1; Cha = N[C@@H](CC1CCCCC1)C(=O)O; Cit = NC(=O)NCCC[C@H](N)C(=O)O; dIva = CC[C@@](C)(N)C(=O)O; 4Amb = NCc1ccc(C(=O)O)cc1; hSer = N[C@@H](CCO)C(=O)O; Iva = CC[C@](C)(N)C(=O)O; Ac3c = NC1(C(=O)O)CC1; Aib = CC(C)(N)C(=O)O

T1: human Y2 receptor (human, UniProt P49146 1-381)
T1 construct: whole, on cells; used as membrane fraction of hY2R/CHO cells; also called human NPY2R; hY2R
T1 sequence (looked up): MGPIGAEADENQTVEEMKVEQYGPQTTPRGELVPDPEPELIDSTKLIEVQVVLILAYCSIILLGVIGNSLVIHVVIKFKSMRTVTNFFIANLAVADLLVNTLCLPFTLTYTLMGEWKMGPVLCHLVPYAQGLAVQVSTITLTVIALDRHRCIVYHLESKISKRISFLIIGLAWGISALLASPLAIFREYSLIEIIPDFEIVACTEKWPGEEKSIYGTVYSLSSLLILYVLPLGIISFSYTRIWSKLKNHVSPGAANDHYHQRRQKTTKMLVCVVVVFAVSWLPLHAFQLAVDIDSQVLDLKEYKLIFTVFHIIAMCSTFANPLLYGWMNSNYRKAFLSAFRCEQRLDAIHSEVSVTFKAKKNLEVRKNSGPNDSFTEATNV

B1: 4-Aminomethylbenzoyl-[Ala26, Ile28,31, Nal(2)36]-PYY(25-36) (peptide)
peptide: [4Amb]RAYINLITRQR[2Nal]-NH2
modifications: N-terminus assumed
SMILES: CC[C@H](C)[C@H](NC(=O)[C@H](Cc1ccc(O)cc1)NC(=O)[C@H](C)NC(=O)[C@H](CCCNC(=N)N)NC(=O)c1ccc(CN)cc1)C(=O)N[C@@H](CC(N)=O)C(=O)N[C@@H](CC(C)C)C(=O)N[C@H](C(=O)N[C@H](C(=O)N[C@@H](CCCNC(=N)N)C(=O)N[C@@H](CCC(N)=O)C(=O)N[C@@H](CCCNC(=N)N)C(=O)N[C@@H](Cc1ccc2ccccc2c1)C(N)=O)[C@@H](C)O)[C@@H](C)CC
notes: also called compound No. 14
B2: 4-Aminomethylbenzoyl-[Ala26, Ile28,31, Tic36]-PYY(25-36) (peptide)
peptide: [4Amb]RAYINLITRQR[Tic]-NH2
modifications: N-terminus assumed
SMILES: CC[C@H](C)[C@H](NC(=O)[C@H](Cc1ccc(O)cc1)NC(=O)[C@H](C)NC(=O)[C@H](CCCNC(=N)N)NC(=O)c1ccc(CN)cc1)C(=O)N[C@@H](CC(N)=O)C(=O)N[C@@H](CC(C)C)C(=O)N[C@H](C(=O)N[C@H](C(=O)N[C@@H](CCCNC(=N)N)C(=O)N[C@@H](CCC(N)=O)C(=O)N[C@@H](CCCNC(=N)N)C(=O)N1Cc2ccccc2C[C@H]1C(N)=O)[C@@H](C)O)[C@@H](C)CC
notes: also called compound No. 17
B3: Ac-[D-Pro24, Cha27,36, Hse28, Aib31]-PYY(23-36) (peptide)
peptide: Ac-S[dP]RH[Cha][hSer]NL[Aib]TRQR[Cha]-NH2
SMILES: CC(=O)N[C@@H](CO)C(=O)N1CCC[C@@H]1C(=O)N[C@@H](CCCNC(=N)N)C(=O)N[C@@H](Cc1c[nH]cn1)C(=O)N[C@@H](CC1CCCCC1)C(=O)N[C@@H](CCO)C(=O)N[C@@H](CC(N)=O)C(=O)N[C@@H](CC(C)C)C(=O)NC(C)(C)C(=O)N[C@H](C(=O)N[C@@H](CCCNC(=N)N)C(=O)N[C@@H](CCC(N)=O)C(=O)N[C@@H](CCCNC(=N)N)C(=O)N[C@@H](CC1CCCCC1)C(N)=O)[C@@H](C)O
notes: also called compound No. 144
B4: 4-Aminomethylbenzoyl-[Ala26, Ile28,31, Phe(4Me)36]-PYY(25-36) (peptide)
peptide: [4Amb]RAYINLITRQR[Phe(4-Me)]-NH2
modifications: N-terminus assumed
SMILES: CC[C@H](C)[C@H](NC(=O)[C@H](Cc1ccc(O)cc1)NC(=O)[C@H](C)NC(=O)[C@H](CCCNC(=N)N)NC(=O)c1ccc(CN)cc1)C(=O)N[C@@H](CC(N)=O)C(=O)N[C@@H](CC(C)C)C(=O)N[C@H](C(=O)N[C@H](C(=O)N[C@@H](CCCNC(=N)N)C(=O)N[C@@H](CCC(N)=O)C(=O)N[C@@H](CCCNC(=N)N)C(=O)N[C@@H](Cc1ccc(C)cc1)C(N)=O)[C@@H](C)O)[C@@H](C)CC
notes: also called compound No. 15
B5: Ac-[Arg20, D-Tyr21, D-Pro24, Cha27,28,36, Aib31]-PYY(20-36) (peptide)
peptide: Ac-R[dY]AS[dP]RH[Cha][Cha]NL[Aib]TRQR[Cha]-NH2
SMILES: CC(=O)N[C@@H](CCCNC(=N)N)C(=O)N[C@H](Cc1ccc(O)cc1)C(=O)N[C@@H](C)C(=O)N[C@@H](CO)C(=O)N1CCC[C@@H]1C(=O)N[C@@H](CCCNC(=N)N)C(=O)N[C@@H](Cc1c[nH]cn1)C(=O)N[C@@H](CC1CCCCC1)C(=O)N[C@@H](CC1CCCCC1)C(=O)N[C@@H](CC(N)=O)C(=O)N[C@@H](CC(C)C)C(=O)NC(C)(C)C(=O)N[C@H](C(=O)N[C@@H](CCCNC(=N)N)C(=O)N[C@@H](CCC(N)=O)C(=O)N[C@@H](CCCNC(=N)N)C(=O)N[C@@H](CC1CCCCC1)C(N)=O)[C@@H](C)O
notes: also called compound No. 164
B6: [(1S)-1-carboxy-3-methylbutyl]carbamoyl-[D-Pro24, Cha27,28,36, Aib31]-PYY(23-36) (peptide)
peptide: X11-S[dP]RH[Cha][Cha]NL[Aib]TRQR[Cha]-NH2
SMILES: CC(C)C[C@H](NC(=O)N[C@@H](CO)C(=O)N1CCC[C@@H]1C(=O)N[C@@H](CCCNC(=N)N)C(=O)N[C@@H](Cc1c[nH]cn1)C(=O)N[C@@H](CC1CCCCC1)C(=O)N[C@@H](CC1CCCCC1)C(=O)N[C@@H](CC(N)=O)C(=O)N[C@@H](CC(C)C)C(=O)NC(C)(C)C(=O)N[C@H](C(=O)N[C@@H](CCCNC(=N)N)C(=O)N[C@@H](CCC(N)=O)C(=O)N[C@@H](CCCNC(=N)N)C(=O)N[C@@H](CC1CCCCC1)C(N)=O)[C@@H](C)O)C(=O)O
notes: also called compound No. 184
B7: 4-Aminomethylbenzoyl-[Ala26, Ile28,31, Nal(1)36]-PYY(25-36) (peptide)
peptide: [4Amb]RAYINLITRQR[1Nal]-NH2
modifications: N-terminus assumed
SMILES: CC[C@H](C)[C@H](NC(=O)[C@H](Cc1ccc(O)cc1)NC(=O)[C@H](C)NC(=O)[C@H](CCCNC(=N)N)NC(=O)c1ccc(CN)cc1)C(=O)N[C@@H](CC(N)=O)C(=O)N[C@@H](CC(C)C)C(=O)N[C@H](C(=O)N[C@H](C(=O)N[C@@H](CCCNC(=N)N)C(=O)N[C@@H](CCC(N)=O)C(=O)N[C@@H](CCCNC(=N)N)C(=O)N[C@@H](Cc1cccc2ccccc12)C(N)=O)[C@@H](C)O)[C@@H](C)CC
notes: also called compound No. 13
B8: Ac-[D-Pro24, Iva27, Cha28,36, Aib31]-PYY(23-36) (peptide)
peptide: Ac-S[dP]RH[Iva][Cha]NL[Aib]TRQR[Cha]-NH2
SMILES: CC[C@](C)(NC(=O)[C@H](Cc1c[nH]cn1)NC(=O)[C@H](CCCNC(=N)N)NC(=O)[C@H]1CCCN1C(=O)[C@H](CO)NC(C)=O)C(=O)N[C@@H](CC1CCCCC1)C(=O)N[C@@H](CC(N)=O)C(=O)N[C@@H](CC(C)C)C(=O)NC(C)(C)C(=O)N[C@H](C(=O)N[C@@H](CCCNC(=N)N)C(=O)N[C@@H](CCC(N)=O)C(=O)N[C@@H](CCCNC(=N)N)C(=O)N[C@@H](CC1CCCCC1)C(N)=O)[C@@H](C)O
notes: also called compound No. 175
B9: Ac-[D-Pro24, D-Iva27, Cha28,36, Aib31]-PYY(23-36) (peptide)
peptide: Ac-S[dP]RH[dIva][Cha]NL[Aib]TRQR[Cha]-NH2
SMILES: CC[C@@](C)(NC(=O)[C@H](Cc1c[nH]cn1)NC(=O)[C@H](CCCNC(=N)N)NC(=O)[C@H]1CCCN1C(=O)[C@H](CO)NC(C)=O)C(=O)N[C@@H](CC1CCCCC1)C(=O)N[C@@H](CC(N)=O)C(=O)N[C@@H](CC(C)C)C(=O)NC(C)(C)C(=O)N[C@H](C(=O)N[C@@H](CCCNC(=N)N)C(=O)N[C@@H](CCC(N)=O)C(=O)N[C@@H](CCCNC(=N)N)C(=O)N[C@@H](CC1CCCCC1)C(N)=O)[C@@H](C)O
notes: also called compound No. 180
B10: Ac-[D-Pro24, Cha27,36, Acpc28, Aib31]-PYY(23-36) (peptide)
peptide: Ac-S[dP]RH[Cha][Ac3c]NL[Aib]TRQR[Cha]-NH2
SMILES: CC(=O)N[C@@H](CO)C(=O)N1CCC[C@@H]1C(=O)N[C@@H](CCCNC(=N)N)C(=O)N[C@@H](Cc1c[nH]cn1)C(=O)N[C@@H](CC1CCCCC1)C(=O)NC1(C(=O)N[C@@H](CC(N)=O)C(=O)N[C@@H](CC(C)C)C(=O)NC(C)(C)C(=O)N[C@H](C(=O)N[C@@H](CCCNC(=N)N)C(=O)N[C@@H](CCC(N)=O)C(=O)N[C@@H](CCCNC(=N)N)C(=O)N[C@@H](CC2CCCCC2)C(N)=O)[C@@H](C)O)CC1
notes: also called compound No. 145
B11: 4-Aminomethylbenzoyl-[Ala26, Ile28,31, NMePhe36]-PYY(25-36) (peptide)
peptide: [4Amb]RAYINLITRQR[NMeF]-NH2
modifications: N-terminus assumed
SMILES: CC[C@H](C)[C@H](NC(=O)[C@H](Cc1ccc(O)cc1)NC(=O)[C@H](C)NC(=O)[C@H](CCCNC(=N)N)NC(=O)c1ccc(CN)cc1)C(=O)N[C@@H](CC(N)=O)C(=O)N[C@@H](CC(C)C)C(=O)N[C@H](C(=O)N[C@H](C(=O)N[C@@H](CCCNC(=N)N)C(=O)N[C@@H](CCC(N)=O)C(=O)N[C@@H](CCCNC(=N)N)C(=O)N(C)[C@@H](Cc1ccccc1)C(N)=O)[C@@H](C)O)[C@@H](C)CC
notes: also called compound No. 16
B12: Ac-[D-Pro24, Cha27,28, Aib31, Phe36]-PYY(23-36) (peptide)
peptide: Ac-S[dP]RH[Cha][Cha]NL[Aib]TRQRF-NH2
SMILES: CC(=O)N[C@@H](CO)C(=O)N1CCC[C@@H]1C(=O)N[C@@H](CCCNC(=N)N)C(=O)N[C@@H](Cc1c[nH]cn1)C(=O)N[C@@H](CC1CCCCC1)C(=O)N[C@@H](CC1CCCCC1)C(=O)N[C@@H](CC(N)=O)C(=O)N[C@@H](CC(C)C)C(=O)NC(C)(C)C(=O)N[C@H](C(=O)N[C@@H](CCCNC(=N)N)C(=O)N[C@@H](CCC(N)=O)C(=O)N[C@@H](CCCNC(=N)N)C(=O)N[C@@H](Cc1ccccc1)C(N)=O)[C@@H](C)O
notes: also called compound No. 143
B13: Ac-[D-Pro24, Cit27, Cha28,36, Aib31]-PYY(23-36) (peptide)
peptide: Ac-S[dP]RH[Cit][Cha]NL[Aib]TRQR[Cha]-NH2
SMILES: CC(=O)N[C@@H](CO)C(=O)N1CCC[C@@H]1C(=O)N[C@@H](CCCNC(=N)N)C(=O)N[C@@H](Cc1c[nH]cn1)C(=O)N[C@@H](CCCNC(N)=O)C(=O)N[C@@H](CC1CCCCC1)C(=O)N[C@@H](CC(N)=O)C(=O)N[C@@H](CC(C)C)C(=O)NC(C)(C)C(=O)N[C@H](C(=O)N[C@@H](CCCNC(=N)N)C(=O)N[C@@H](CCC(N)=O)C(=O)N[C@@H](CCCNC(=N)N)C(=O)N[C@@H](CC1CCCCC1)C(N)=O)[C@@H](C)O
notes: also called compound No. 146

target: T1, human Y2 receptor; assay: RBA: [125I]-PYY displacement, hY2R/CHO membranes
Summary of the method: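 Bound radioligand was collected by filtration on PEI-treated GF/C filters, washed with Tris/MgCl₂/NaCl/CHAPS buffer pH 7.4, and counted by scintillation; IC₅₀ values were calculated.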

Binder	IC50 Ratio (vs PYY(3-36)) [ratio]
B1	14
B2	180
B3	22
B4	8.7
B5	0.44
B6	1.5
B7	7.6
B8	6.4
B9	8.1
B10	160
B11	120
B12	2.9
B13	36

target: T1, human Y2 receptor; assay: cell-based or functional assay

Binder	GBA EC50 Ratio (vs PYY(3-36)), [35S]GTPγS [ratio]
B1	6.9
B2	66
B3	4.5
B4	5.5
B5	0.66
B6	2.9
B7	3.6
B8	2.6
B9	6
B10	17
B11	45
B12	0.85
B13	5.6
